In patent publication US20230265151A1, “GIP/GLP1 CO-AGONIST COMPOUNDS” (priority 2020, published 2023):
*1 amine or outer side, *2 acyl side, *3 side chain or, on linkers, in order; H or OH if unused. Where no end group is shown, it is not given here. Side-chain parts run from the residue outwards. [ ]: non-standard residue; d: D form. The star is where a group is joined. Butanoyl(4-(4-tBuPh)) = CC(C)(C)c1ccc(CCCC(=O)*)cc1; αMePhe(2-F) = C[C@](N)(Cc1ccccc1F)C(=O)O; γGlu = O=C(O)[C@H](CCC(=O)[*:2])N[*:1]; C14 diacid = O=C(O)CCCCCCCCCCCCC(=O)*; εLys = N[C@@H](CCCCN[*:1])C(=O)[*:2]; αMeY = C[C@](N)(Cc1ccc(O)cc1)C(=O)O; αMeF = C[C@](N)(Cc1ccccc1)C(=O)O; αMeL = CC(C)C[C@](C)(N)C(=O)O; Lauroyl = CCCCCCCCCCCC(=O)*; Orn = NCCC[C@H](N)C(=O)O; AEEA = NCCOCCOCC(=O)O; Aib = CC(C)(N)C(=O)O

T1: human glucose-dependent insulinotropic polypeptide (GIP) receptor (human, UniProt P48546 22-466)
T1 sequence (looked up): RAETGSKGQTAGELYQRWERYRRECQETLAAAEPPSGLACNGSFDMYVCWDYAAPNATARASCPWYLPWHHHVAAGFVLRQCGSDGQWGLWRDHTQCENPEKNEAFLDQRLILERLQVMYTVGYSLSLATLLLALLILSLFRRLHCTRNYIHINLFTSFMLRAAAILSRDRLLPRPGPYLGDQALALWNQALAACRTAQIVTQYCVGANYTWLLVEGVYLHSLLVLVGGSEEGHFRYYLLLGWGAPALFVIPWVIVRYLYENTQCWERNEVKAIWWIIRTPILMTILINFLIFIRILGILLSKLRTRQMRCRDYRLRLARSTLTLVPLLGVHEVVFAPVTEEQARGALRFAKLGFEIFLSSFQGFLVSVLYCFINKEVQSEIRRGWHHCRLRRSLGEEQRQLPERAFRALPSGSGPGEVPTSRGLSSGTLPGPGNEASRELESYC


Columns and labels:
[1] = target: T1, human glucose-dependent insulinotropic …; test: cell-based or functional assay
[2] = target: human glucagon-like peptide-1 (GLP-1) receptor (human, UniProt P43220 24-463); test: cell-based or functional assay

Binder	cAMP EC50 [1]	cAMP Emax [1]	cAMP EC50 [2]	cAMP Emax [2]
Y[Aib]EGT[αMePhe(2-F)]TSDV[Aib]I[αMeL]LD[Orn]K([εLys-γGlu-C14 diacid])AQ[Aib]EFI[dE][αMeY]LIEGGK([εLys-γGlu-C14 diacid])SSGAPPPS-NH2 (N-terminus assumed; SMILES CC[C@H](C)[C@H](NC(=O)[C@H](CC(C)C)NC(=O)[C@](C)(Cc1ccc(O)cc1)NC(=O)[C@@H](CCC(=O)O)NC(=O)[C@@H](NC(=O)[C@H](Cc1ccccc1)NC(=O)[C@H](CCC(=O)O)NC(=O)C(C)(C)NC(=O)[C@H](CCC(N)=O)NC(=O)[C@H](C)NC(=O)[C@H](CCCCNC(=O)[C@@H](N)CCCCNC(=O)CC[C@H](NC(=O)CCCCCCCCCCCCC(=O)O)C(=O)O)NC(=O)[C@H](CCCN)NC(=O)[C@H](CC(=O)O)NC(=O)[C@H](CC(C)C)NC(=O)[C@](C)(CC(C)C)NC(=O)[C@@H](NC(=O)C(C)(C)NC(=O)[C@@H](NC(=O)[C@H](CC(=O)O)NC(=O)[C@H](CO)NC(=O)[C@@H](NC(=O)[C@](C)(Cc1ccccc1F)NC(=O)[C@@H](NC(=O)CNC(=O)[C@H](CCC(=O)O)NC(=O)C(C)(C)NC(=O)[C@@H](N)Cc1ccc(O)cc1)[C@@H](C)O)[C@@H](C)O)C(C)C)[C@@H](C)CC)[C@@H](C)CC)C(=O)N[C@@H](CCC(=O)O)C(=O)NCC(=O)NCC(=O)N[C@@H](CCCCNC(=O)[C@@H](N)CCCCNC(=O)CC[C@H](NC(=O)CCCCCCCCCCCCC(=O)O)C(=O)O)C(=O)N[C@@H](CO)C(=O)N[C@@H](CO)C(=O)NCC(=O)N[C@@H](C)C(=O)N1CCC[C@H]1C(=O)N1CCC[C@H]1C(=O)N1CCC[C@H]1C(=O)N[C@@H](CO)C(N)=O) [Example 164]	0.0464 nM	95.8%	0.236 nM	
Y[Aib]EGT[αMePhe(2-F)]TSDV[Aib]I[αMeL]LD[Orn]K([εLys-εLys-γGlu-C14 diacid])AQ[Aib]EFI[dE][αMeY]LIEGGK([εLys-εLys-γGlu-C14 diacid])SSGAPPPS-NH2 (N-terminus assumed; SMILES CC[C@H](C)[C@H](NC(=O)[C@H](CC(C)C)NC(=O)[C@](C)(Cc1ccc(O)cc1)NC(=O)[C@@H](CCC(=O)O)NC(=O)[C@@H](NC(=O)[C@H](Cc1ccccc1)NC(=O)[C@H](CCC(=O)O)NC(=O)C(C)(C)NC(=O)[C@H](CCC(N)=O)NC(=O)[C@H](C)NC(=O)[C@H](CCCCNC(=O)[C@@H](N)CCCCNC(=O)[C@@H](N)CCCCNC(=O)CC[C@H](NC(=O)CCCCCCCCCCCCC(=O)O)C(=O)O)NC(=O)[C@H](CCCN)NC(=O)[C@H](CC(=O)O)NC(=O)[C@H](CC(C)C)NC(=O)[C@](C)(CC(C)C)NC(=O)[C@@H](NC(=O)C(C)(C)NC(=O)[C@@H](NC(=O)[C@H](CC(=O)O)NC(=O)[C@H](CO)NC(=O)[C@@H](NC(=O)[C@](C)(Cc1ccccc1F)NC(=O)[C@@H](NC(=O)CNC(=O)[C@H](CCC(=O)O)NC(=O)C(C)(C)NC(=O)[C@@H](N)Cc1ccc(O)cc1)[C@@H](C)O)[C@@H](C)O)C(C)C)[C@@H](C)CC)[C@@H](C)CC)C(=O)N[C@@H](CCC(=O)O)C(=O)NCC(=O)NCC(=O)N[C@@H](CCCCNC(=O)[C@@H](N)CCCCNC(=O)[C@@H](N)CCCCNC(=O)CC[C@H](NC(=O)CCCCCCCCCCCCC(=O)O)C(=O)O)C(=O)N[C@@H](CO)C(=O)N[C@@H](CO)C(=O)NCC(=O)N[C@@H](C)C(=O)N1CCC[C@H]1C(=O)N1CCC[C@H]1C(=O)N1CCC[C@H]1C(=O)N[C@@H](CO)C(N)=O) [Example 165]	0.0442 nM	96.1%	0.291 nM	
Y[Aib]EGT[αMePhe(2-F)]TSDV[Aib]I[αMeL]LD[Orn]K([AEEA-AEEA-γGlu-Lauroyl])AQ[Aib]EFI[dE][αMeY]LIEGGK([AEEA-AEEA-γGlu-Lauroyl])SSGAPPPS-NH2 (N-terminus assumed; SMILES CCCCCCCCCCCC(=O)N[C@@H](CCC(=O)NCCOCCOCC(=O)NCCOCCOCC(=O)NCCCC[C@H](NC(=O)CNC(=O)CNC(=O)[C@H](CCC(=O)O)NC(=O)[C@@H](NC(=O)[C@H](CC(C)C)NC(=O)[C@](C)(Cc1ccc(O)cc1)NC(=O)[C@@H](CCC(=O)O)NC(=O)[C@@H](NC(=O)[C@H](Cc1ccccc1)NC(=O)[C@H](CCC(=O)O)NC(=O)C(C)(C)NC(=O)[C@H](CCC(N)=O)NC(=O)[C@H](C)NC(=O)[C@H](CCCCNC(=O)COCCOCCNC(=O)COCCOCCNC(=O)CC[C@H](NC(=O)CCCCCCCCCCC)C(=O)O)NC(=O)[C@H](CCCN)NC(=O)[C@H](CC(=O)O)NC(=O)[C@H](CC(C)C)NC(=O)[C@](C)(CC(C)C)NC(=O)[C@@H](NC(=O)C(C)(C)NC(=O)[C@@H](NC(=O)[C@H](CC(=O)O)NC(=O)[C@H](CO)NC(=O)[C@@H](NC(=O)[C@](C)(Cc1ccccc1F)NC(=O)[C@@H](NC(=O)CNC(=O)[C@H](CCC(=O)O)NC(=O)C(C)(C)NC(=O)[C@@H](N)Cc1ccc(O)cc1)[C@@H](C)O)[C@@H](C)O)C(C)C)[C@@H](C)CC)[C@@H](C)CC)[C@@H](C)CC)C(=O)N[C@@H](CO)C(=O)N[C@@H](CO)C(=O)NCC(=O)N[C@@H](C)C(=O)N1CCC[C@H]1C(=O)N1CCC[C@H]1C(=O)N1CCC[C@H]1C(=O)N[C@@H](CO)C(N)=O)C(=O)O) [Example 175]	0.0337 nM	100%	0.227 nM	91.1%
Y[Aib]EGT[αMeF]TSDV[Aib]I[αMeL]LD[Orn]K([AEEA-AEEA-γGlu-Lauroyl])AQ[Aib]EFI[dE][αMeY]LIEGGK([AEEA-AEEA-γGlu-Lauroyl])SSGAPPPS-NH2 (N-terminus assumed; SMILES CCCCCCCCCCCC(=O)N[C@@H](CCC(=O)NCCOCCOCC(=O)NCCOCCOCC(=O)NCCCC[C@H](NC(=O)CNC(=O)CNC(=O)[C@H](CCC(=O)O)NC(=O)[C@@H](NC(=O)[C@H](CC(C)C)NC(=O)[C@](C)(Cc1ccc(O)cc1)NC(=O)[C@@H](CCC(=O)O)NC(=O)[C@@H](NC(=O)[C@H](Cc1ccccc1)NC(=O)[C@H](CCC(=O)O)NC(=O)C(C)(C)NC(=O)[C@H](CCC(N)=O)NC(=O)[C@H](C)NC(=O)[C@H](CCCCNC(=O)COCCOCCNC(=O)COCCOCCNC(=O)CC[C@H](NC(=O)CCCCCCCCCCC)C(=O)O)NC(=O)[C@H](CCCN)NC(=O)[C@H](CC(=O)O)NC(=O)[C@H](CC(C)C)NC(=O)[C@](C)(CC(C)C)NC(=O)[C@@H](NC(=O)C(C)(C)NC(=O)[C@@H](NC(=O)[C@H](CC(=O)O)NC(=O)[C@H](CO)NC(=O)[C@@H](NC(=O)[C@](C)(Cc1ccccc1)NC(=O)[C@@H](NC(=O)CNC(=O)[C@H](CCC(=O)O)NC(=O)C(C)(C)NC(=O)[C@@H](N)Cc1ccc(O)cc1)[C@@H](C)O)[C@@H](C)O)C(C)C)[C@@H](C)CC)[C@@H](C)CC)[C@@H](C)CC)C(=O)N[C@@H](CO)C(=O)N[C@@H](CO)C(=O)NCC(=O)N[C@@H](C)C(=O)N1CCC[C@H]1C(=O)N1CCC[C@H]1C(=O)N1CCC[C@H]1C(=O)N[C@@H](CO)C(N)=O)C(=O)O) [Example 176]	0.0485 nM	89.3%	0.298 nM	
Y[Aib]EGT[αMePhe(2-F)]TSDV[Aib]I[αMeL]LD[Orn]K([AEEA-AEEA-γGlu-Butanoyl(4-(4-tBuPh))])AQ[Aib]EFI[dE][αMeY]LIEGGK([AEEA-AEEA-γGlu-Butanoyl(4-(4-tBuPh))])SSGAPPPS-NH2 [Example 177]	0.0433 nM	113%	0.178 nM	
Y[Aib]EGT[αMeF]TSDV[Aib]I[αMeL]LD[Orn]K([AEEA-AEEA-γGlu-Butanoyl(4-(4-tBuPh))])AQ[Aib]EFI[dE][αMeY]LIEGGK([AEEA-AEEA-γGlu-Butanoyl(4-(4-tBuPh))])SSGAPPPS-NH2 (N-terminus assumed; SMILES CC[C@H](C)[C@H](NC(=O)[C@H](CC(C)C)NC(=O)[C@](C)(Cc1ccc(O)cc1)NC(=O)[C@@H](CCC(=O)O)NC(=O)[C@@H](NC(=O)[C@H](Cc1ccccc1)NC(=O)[C@H](CCC(=O)O)NC(=O)C(C)(C)NC(=O)[C@H](CCC(N)=O)NC(=O)[C@H](C)NC(=O)[C@H](CCCCNC(=O)COCCOCCNC(=O)COCCOCCNC(=O)CC[C@H](NC(=O)CCCc1ccc(C(C)(C)C)cc1)C(=O)O)NC(=O)[C@H](CCCN)NC(=O)[C@H](CC(=O)O)NC(=O)[C@H](CC(C)C)NC(=O)[C@](C)(CC(C)C)NC(=O)[C@@H](NC(=O)C(C)(C)NC(=O)[C@@H](NC(=O)[C@H](CC(=O)O)NC(=O)[C@H](CO)NC(=O)[C@@H](NC(=O)[C@](C)(Cc1ccccc1)NC(=O)[C@@H](NC(=O)CNC(=O)[C@H](CCC(=O)O)NC(=O)C(C)(C)NC(=O)[C@@H](N)Cc1ccc(O)cc1)[C@@H](C)O)[C@@H](C)O)C(C)C)[C@@H](C)CC)[C@@H](C)CC)C(=O)N[C@@H](CCC(=O)O)C(=O)NCC(=O)NCC(=O)N[C@@H](CCCCNC(=O)COCCOCCNC(=O)COCCOCCNC(=O)CC[C@H](NC(=O)CCCc1ccc(C(C)(C)C)cc1)C(=O)O)C(=O)N[C@@H](CO)C(=O)N[C@@H](CO)C(=O)NCC(=O)N[C@@H](C)C(=O)N1CCC[C@H]1C(=O)N1CCC[C@H]1C(=O)N1CCC[C@H]1C(=O)N[C@@H](CO)C(N)=O) [Example 178]	0.11 nM	105%	0.22 nM	
